Measurements reported in US20110091971A1, “Differentiation of Pluripotent Stem Cells” (priority 2008, published 2011).

Tested on: H1 or H9 human embryonic stem cells
Experiment: Activin A bioassay: differentiation of human embryonic stem cells to definitive endoderm, cell number and SOX17 intensity by high content analysis (96-well, four days);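 on Cell Number average: Raw total cell count per well from high content imaging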;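 on Sox 17 Intensity average: total fluorescence of the cell multiplied by cell area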
Assay type: cell-based
Settings: for Sox 17 Intensity % of control: control = R&D Sys Activin A 100 ng/ml on same plate
Summary of the method: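 Read-out was cell count and integrated SOX17 immunofluorescence by high-content imaging, with each well divided by the mean of the 100 ng/ml activin A control. Over the four-day culture, test samples were given in DMEM:F12 with 0.5% FCS plus 20 ng/ml Wnt3a for the first two days and in 2% FCS alone for the last two. Cells were H1 or H9 hESC clusters grown on Matrigel.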

[1] = supernatant concentration 1x, assay dilution 1:20
[2] = supernatant concentration 10x, assay dilution 1:20
[3] = supernatant concentration 10x, assay dilution 1:40

Molecule | Cell Number average [1] | Sox 17 Intensity average [1] | Sox 17 Intensity % of control [1] | Cell Number average [2] | Sox 17 Intensity average [2] | Sox 17 Intensity % of control [2] | Cell Number average [3] | Sox 17 Intensity average [3] | Sox 17 Intensity % of control [3]
ACTN12: activin A variant peptide, SEQ ID 13 (protein) GLECDGKVNYCCKKQNFVSFKDIGWNDWIIAPSGYHANECSGLCPSHIAGTSGSSLSFHSTVINHYRMRGHSPFSQMGSCCIPTKLRPMSMLYYDDGQNIIKKDIQNMIVEECGCS | 5420 | 1.10E+06 | 4.3% | 6633 | 7.65E+06 | 29.6% | 6317 | 2.43E+06 | 9.4%
ACTN18: activin A variant peptide, SEQ ID 19 (protein) GLECDGKVNYCCKKQNFVSFKDIGWNDWIIAPSGYHANKCSGKCPSHIAGTSGSSLSFHSTVINHYRMRGHSPFSDMGACCIPTKLRPMSMLYYDDGQNIIKKDIQNMIVEECGCS | 6078 | 5.68E+05 | 2.2% | 9676 | 1.22E+06 | 4.7% | 11683 | 2.22E+05 | 0.9%
ACTN19: activin A variant peptide, SEQ ID 20 (protein) GLECDGKVNLCCKKQDFVSFKDIGWNDWIIAPSGYHANKCGGKCPSHIAGTSGSSLSFHSTVINHYRMRGHSPFANMGSCCIPTKLRPMSMLYYDDGQNIIKKDIQNMIVEECGCS | 11017 | 4.09E+04 | 0.1% | 11587 | 3.96E+04 | 0.1% | 12549 | 4.86E+03 | 0.0%
ACTN22: activin A variant peptide, SEQ ID 23 (protein) GLECDGKVNLCCKKQDFVSFKDIGWNDWIIAPSGYHANRCDGLCPSHIAGTSGSSLSFHSTVINHYRMRGHSPFALMGACCIPTKLRPMSMLYYDDGQNIIKKDIQNMIVEECGCS | 9909 | 1.32E+05 | 0.4% | 8745 | 3.69E+05 | 1.3% | 9568 | 3.76E+05 | 1.3%
ACTN21: activin A variant peptide, SEQ ID 22 (protein) GLECDGKVNYCCKKQWFVSFKDIGWNDWIIAPSGYHANKCSGKCPSHIAGTSGSSLSFHSTVINHYRMRGHSPFANMGSCCIPTKLRPMSMLYYDDGQNIIKKDIQNMIVEECGCS | 8072 | 6.33E+03 | 0.0% | 11102 | 4.89E+05 | 1.7% | 10458 | 8.77E+04 | 0.3%
ACTN20: activin A variant peptide, SEQ ID 21 (protein) GLECDGKVNLCCKKQNFVSFKDIGWNDWIIAPSGYHANKCGGLCPSHIAGTSGSSLSFHSTVINHYRMRGHSPFAQMGACCIPTKLRPMSMLYYDDGQNIIKKDIQNMIVEECGCS | 9000 | 1.26E+04 | 0.0% | 10217 | 1.52E+05 | 0.5% | 12284 | 9.03E+03 | 0.0%
ACTN17: activin A variant peptide, SEQ ID 18 (protein) GLECDGKVNYCCKKQDFVSFKDIGWNDWIIAPSGYHANKCGGKCPSHIAGTSGSSLSFHSTVINHYRMRGHSPFSDMGACCVPTKLRPMSMLYYDDGQNIIKKDIQNMIVEECGCS | 10154 | 1.21E+06 | 4.7% | 12596 | 2.83E+05 | 1.1% | 10807 | 4.38E+05 | 1.7%
ACTN14: activin A variant peptide, SEQ ID 15 (protein) GLECDGKVNLCCKKQHFVSFKDIGWNDWIIAPSGYHANRCDGLCPSHIAGTSGSSLSFHSTVINHYRMRGHSPFAQMGSCCVPTKLRPMSMLYYDDGQNIIKKDIQNMIVEECGCS | 4968 | 1.50E+06 | 5.8% | 6278 | 3.66E+06 | 14.1% | 5584 | 4.73E+06 | 18.3%
ACTN23: activin A variant peptide, SEQ ID 24 (protein) GLECDGKVNYCCKKQDFVSFKDIGWNDWIIAPSGYHANKCDGKCPSHIAGTSGSSLSFHSTVINHYRMRGHSPFSDMGSCCIPTKLRPMSMLYYDDGQNIIKKDIQNMIVEECGCS | 6831 | 2.89E+04 | 0.1% | 10482 | 1.63E+05 | 0.6% | 8184 | 1.47E+05 | 0.5%
ACTN28: activin A variant peptide, SEQ ID 29 (protein) GLECDGKVNYCCKKQLFVSFKDIGWNDWIIAPSGYHANHCSGKCPSHIAGTSGSSLSFHSTVINHYRMRGHSPFANMGSCCIPTKLRPMSMLYYDDGQNIIKKDIQNMIVEECGCS | 7411 | 3.70E+06 | 12.6% | 12587 | 4.87E+07 | 165.7% | 10116 | 3.57E+07 | 121.5%
ACTN32: activin A variant peptide, SEQ ID 33 (protein) GLECDGKVNLCCKKQDFVSFKDIGWNDWIIAPSGYHANRCGGKCPSHIAGTSGSSLSFHSTVINHYRMRGHSPFSNMGSCCIPTKLRPMSMLYYDDGQNIIKKDIQNMIVEECGCS | 16166 | 9.11E+04 | 0.3% | 14330 | 3.97E+04 | 0.1% | 11619 | 3.43E+05 | 1.2%
